The source of these data is patent US20240034757A1 (OXFORD UNIVERSITY INNOVATION, published 2024).

Like-named read-outs stand apart in the source and are kept apart here.

One experiment concerns the target CXCL12_HUMAN (human, UniProt P48061 22-89). In words: BLI.
A further experiment concerns the target T1, CXCL9_HUMAN (human, UniProt Q07325 23-125).
T1 sequence: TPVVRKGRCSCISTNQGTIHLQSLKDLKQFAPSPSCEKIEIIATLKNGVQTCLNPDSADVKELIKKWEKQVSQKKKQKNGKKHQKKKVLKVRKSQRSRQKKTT
The experiment in a line: BLI.

The target in another experiment is T2, CXCL14_HUMAN (human, UniProt O95715 35-111).
T2 sequence: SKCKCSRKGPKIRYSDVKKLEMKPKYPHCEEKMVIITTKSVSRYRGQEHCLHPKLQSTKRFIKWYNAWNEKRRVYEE
The experiment in a line: BLI.

The next experiment has as its target T3, CXCL8_HUMAN (human, UniProt P10145 28-99).
T3 sequence: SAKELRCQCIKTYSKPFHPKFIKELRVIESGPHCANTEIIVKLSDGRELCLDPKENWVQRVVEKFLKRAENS
In words: BLI [Cont.].

The target in the next experiment is T4, CXCL7_HUMAN (human, UniProt P02775 59-128).
T4 sequence: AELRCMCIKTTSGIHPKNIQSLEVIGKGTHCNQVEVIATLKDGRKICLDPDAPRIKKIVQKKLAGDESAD
The experiment in a line: BLI [Cont.].

The target of the next experiment is T5, CXCL11_HUMAN (human, UniProt O14625 22-94).
T5 sequence: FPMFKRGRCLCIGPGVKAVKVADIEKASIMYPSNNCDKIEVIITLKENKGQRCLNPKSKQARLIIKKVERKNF
The experiment in a line: yeast surface display FACS re-test. Note: test concentration or dose not given here.

In experiment [1] the target is T6, P1243_AMBAM (Amblyomma americanum, UniProt A0A0C9S461 26-123).
T6 sequence: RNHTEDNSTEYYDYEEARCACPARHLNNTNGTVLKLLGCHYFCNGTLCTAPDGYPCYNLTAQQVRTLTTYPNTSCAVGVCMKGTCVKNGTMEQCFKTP
The experiment in a line: BLI.

For a further experiment, the target named is T7, P467_RHIPU (Rhipicephalus pulchellus, UniProt L7M8Z8 22-127).
T7 sequence: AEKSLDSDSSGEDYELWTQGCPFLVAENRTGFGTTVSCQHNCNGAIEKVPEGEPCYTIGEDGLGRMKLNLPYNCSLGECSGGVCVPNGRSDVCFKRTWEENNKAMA
The experiment in a line: BLI.

For the next experiment, the target named is T8, P985_AMBPA (Amblyomma parvum, UniProt A0A023FT45 25-132).
T8 sequence: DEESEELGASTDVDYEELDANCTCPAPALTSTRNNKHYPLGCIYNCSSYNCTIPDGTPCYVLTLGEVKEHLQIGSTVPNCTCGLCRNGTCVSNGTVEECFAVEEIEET
The experiment in a line: BLI.

The target in the next experiment is T9, P546_AMBCA (Amblyomma cajennense, UniProt A0A023FBW7 22-118).
T9 sequence: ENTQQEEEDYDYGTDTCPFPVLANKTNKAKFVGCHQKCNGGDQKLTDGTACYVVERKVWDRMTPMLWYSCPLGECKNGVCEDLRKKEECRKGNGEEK
In words: BLI.

The next experiment concerns the target T10, P1182_AMBMA (Amblyomma maculatum, UniProt G3MJ83 27-115).
T10 sequence: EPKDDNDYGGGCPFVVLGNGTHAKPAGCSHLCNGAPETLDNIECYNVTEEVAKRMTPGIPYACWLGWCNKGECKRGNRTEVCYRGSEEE
In words: BLI.

The target in another experiment is T11, P983_AMBCA (Amblyomma cajennense, UniProt A0A023FFB5 22-119).
T11 sequence: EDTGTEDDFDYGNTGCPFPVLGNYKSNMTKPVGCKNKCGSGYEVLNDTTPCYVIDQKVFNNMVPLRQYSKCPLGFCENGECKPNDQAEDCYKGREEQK
The experiment in a line: BLI.

A further experiment addresses T12, P974_AMBCA (Amblyomma cajennense, UniProt A0A023FDY8 22-118).
T12 sequence: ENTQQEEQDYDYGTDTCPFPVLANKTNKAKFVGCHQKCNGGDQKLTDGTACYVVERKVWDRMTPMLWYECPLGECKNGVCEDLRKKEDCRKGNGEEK
In words: BLI.

The next experiment has as its target T13, P1181_AMBMA (Amblyomma maculatum, UniProt G3MIX6 26-115).
T13 sequence: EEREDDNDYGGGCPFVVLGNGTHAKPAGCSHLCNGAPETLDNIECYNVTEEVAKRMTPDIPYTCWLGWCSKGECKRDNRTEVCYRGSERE
In words: BLI.

The target of another experiment is T14, P1183_AMBTR (Amblyomma triste, UniProt A0A023G9N9 26-115).
T14 sequence: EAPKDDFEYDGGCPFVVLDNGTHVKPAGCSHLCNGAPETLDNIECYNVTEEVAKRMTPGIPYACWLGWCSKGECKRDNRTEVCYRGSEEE
The experiment in a line: BLI.

The target in the next experiment is T15, P991_AMBCA (Amblyomma cajennense, UniProt A0A023FFD0 29-136).
T15 sequence: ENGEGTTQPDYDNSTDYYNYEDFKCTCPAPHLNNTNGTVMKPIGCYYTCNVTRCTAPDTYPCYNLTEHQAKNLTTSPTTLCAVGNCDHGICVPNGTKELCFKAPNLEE
The experiment in a line: BLI.

The target in another experiment is T16, P1180_AMBTR (Amblyomma triste, UniProt A0A023G6B6 26-116).
T16 sequence: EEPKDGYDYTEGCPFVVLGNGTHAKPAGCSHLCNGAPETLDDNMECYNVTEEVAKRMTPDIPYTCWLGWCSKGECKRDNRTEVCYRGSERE
The experiment in a line: BLI.

Experiment [2] has as its target T6, P1243_AMBAM. The experiment in a line: BLI. This is another data set of the same source.
For another experiment, the target named is T17, CXCL10_HUMAN (human, UniProt P02778 22-98).
T17 sequence: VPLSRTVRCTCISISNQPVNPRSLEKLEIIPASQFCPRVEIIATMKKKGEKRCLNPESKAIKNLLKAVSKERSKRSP
In words: yeast surface display FACS re-test. Note: test concentration or dose not given here.

The target of another experiment is T18, P672_RHIPU (Rhipicephalus pulchellus, UniProt L7MC74 22-125).
T18 sequence: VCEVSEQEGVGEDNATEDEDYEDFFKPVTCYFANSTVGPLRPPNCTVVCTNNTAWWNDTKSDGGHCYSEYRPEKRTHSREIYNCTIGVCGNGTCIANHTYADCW
The experiment in a line: BLI.

In the next experiment the target is T19, CXCL4_HUMAN (human, UniProt P02776 32-101).
T19 sequence: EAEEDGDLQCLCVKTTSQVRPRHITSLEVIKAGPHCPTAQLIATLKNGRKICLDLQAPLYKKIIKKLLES
In words: BLI [Cont.].

Sequence of CXCL12_HUMAN (P48061 22-89 limits assumed): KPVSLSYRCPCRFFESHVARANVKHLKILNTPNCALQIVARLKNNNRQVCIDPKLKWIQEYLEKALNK

B1: P675_IXORI (other)
chain: GSNQLSGPQSSANSNDAVFCDTNCTQGTDGAWSGCRGDCFCVHVGNSTEGRCIELIGDFDYSTPGAED
With B1, the binding result with CXCL12_HUMAN, with CXCL9_HUMAN, in the experiment with CXCL14_HUMAN, with CXCL8_HUMAN and in the experiment with CXCL7_HUMAN was “no binding (tested: 300 nM)” in each case. Also, the “% cells over threshold fluorescence” value with CXCL11_HUMAN stood at 55%.

B2: CCL4_HUMAN (ligand)
chain: APMGSDPPTACCFSYTARKLPRNFVVDYYETSSLCSQPAVVFQTKRSKQVCADPSESWVQEYVYDLELN
In the case of B2, the Kd came to 15.3 nM in the experiment with P1243_AMBAM [1]; 13.6 nM in the experiment with P467_RHIPU; 46 nM with P985_AMBPA; 27 nM with P546_AMBCA; 63 nM in the experiment with P1182_AMBMA; 8 nM with P983_AMBCA. For the same molecule, the Kd in the experiment with P974_AMBCA stood at 30.2 nM; in the experiment with P1181_AMBMA, 53 nM; in the experiment with P1183_AMBTR, 78 nM; in the experiment with P991_AMBCA, 5.82 nM; with P1180_AMBTR it was 66 nM; with P1243_AMBAM [2] it was 15.3 nM.

B3: P1074_IXORI (other)
chain: GSKESSAHQSSDDSIKAEFCDAKCTMKTDGKWTQCHGGCFCVHVGNETEGRCMRLDGDYDYPSTQPEE
Consider B3, for which the binding result with CXCL12_HUMAN, with CXCL14_HUMAN, with CXCL8_HUMAN and with CXCL7_HUMAN was “no binding (tested: 300 nM)” throughout. Besides, the “% cells over threshold fluorescence” value came to 33% with CXCL11_HUMAN and 71% with CXCL10_HUMAN.

B4: CCL7_HUMAN (ligand)
chain: not shown
For the molecule B4, the Kd is 8.66 nM with P1243_AMBAM [1]; 2.15 nM with P467_RHIPU; 61 nM with P985_AMBPA; 90 nM in the experiment with P546_AMBCA; 16 nM in the experiment with P672_RHIPU; 32 nM in the experiment with P983_AMBCA. In addition, the dissociation constant Kd with P974_AMBCA came to 41.2 nM; with P1181_AMBMA, 120 nM; with P1183_AMBTR, 5.4 nM; with P991_AMBCA, 0.514 nM; in the experiment with P1180_AMBTR, 98 nM; in the experiment with P1243_AMBAM [2], 8.66 nM.

B5: P1080_IXORI (other)
chain: SAGSKGSSAPQSSGDSVVAEFCDTNCTMKKDGKWTECNGDCFCVHVGNETVGRCMRLDGDYDYTSSKTTRRNKKTRNGLCRLDRNRTTVDYPERNTREP
Regarding B5, the “% cells over threshold fluorescence” value with CXCL11_HUMAN amounted to 45%; with CXCL10_HUMAN, 70%.

B6: P1101_IXORI (other)
chain: HTTVAGSDEDIEVSYCGMNCTVESGKSSKCSPDCVCVHEGNERDGICISITYLGDLGNPLEDPSIDLATPLAPVFQSSK
For B6, the “% cells over threshold fluorescence” value in the experiment with CXCL10_HUMAN was 75%.

B7: P942_IXORI (other)
chain: NQLSGPQSSANSNEAVFCDTNCTQGTDEAWSGCRGDCFCVYVGNSTEGRCMMLSGDFDYSTPGAED
In the case of B7, the binding result in the experiment with CXCL12_HUMAN, with CXCL9_HUMAN, in the experiment with CXCL14_HUMAN, with CXCL8_HUMAN and with CXCL7_HUMAN was “no binding (tested: 300 nM)” in each case. Also, the “% cells over threshold fluorescence” value with CXCL11_HUMAN came out at 37%.

B8: CCL16_HUMAN (ligand)
chain: QPKVPEWVNTPSTCCLKYYEKVLPRRLVVGYRKALNCHLPAIIFVTKRNREVCTNPNDDWVQEYIKDPNLPLLPTRNLSTVKIITAKNGQPQLLNSQ
Take B8: the Kd was 0.925 nM with P1243_AMBAM [1]; 14.1 nM with P467_RHIPU; 45 nM in the experiment with P985_AMBPA; 3.3 nM with P672_RHIPU; 1.28 nM in the experiment with P991_AMBCA; 0.926 nM in the experiment with P1243_AMBAM [2].

B9: CCL3_HUMAN (ligand)
chain: SLAADTPTACCFSYTSRQIPQNFIADYFETSSQCSKPGVIFLTKRSRQVCADPSEEWVQKYVSDLELSA
As to B9, the Kd is 5.3 nM with P1243_AMBAM [1]; 0.363 nM with P467_RHIPU; 8.9 nM with P985_AMBPA; 15 nM in the experiment with P546_AMBCA; 2.6 nM with P672_RHIPU; 5.4 nM in the experiment with P1182_AMBMA. The Kd was determined as 3.5 nM in the experiment with P983_AMBCA; 7.97 nM with P974_AMBCA; 2.2 nM with P1181_AMBMA; 1.08 nM in the experiment with P991_AMBCA; 1.1 nM with P1180_AMBTR; 5.3 nM in the experiment with P1243_AMBAM [2].

B10: P1078_IXORI (other)
chain: GSKGSSAQQSSHDSIKAEFCETNCTMKTGGKWTQCHGGCFCVHVGNETVGRCIKLDGDYDYPSSKHEE
Turning to B10, the binding result with CXCL12_HUMAN, in the experiment with CXCL9_HUMAN, with CXCL14_HUMAN, with CXCL4_HUMAN, in the experiment with CXCL8_HUMAN and with CXCL7_HUMAN was “no binding (tested: 300 nM)” throughout. In the experiment with CXCL11_HUMAN, the “% cells over threshold fluorescence” value stood at 38%.

B11: CCL15_HUMAN (ligand)
chain: QFTNDAETELMMSKLPLENPVVLNSFHFAADCCTSYISQSIPCSLMKSYFETSSECSKPGVIFLTKKGRQVCAKPSGPGVQDCMKKLKPYSI
As for B11, the Kd is 9.61 nM with P1243_AMBAM [1], 32 nM in the experiment with P672_RHIPU, 159 nM in the experiment with P991_AMBCA and 9.61 nM with P1243_AMBAM [2].
